We go through ten molecules from patent publication US20160122405A1, “HOMEODOMAIN FUSION PROTEINS AND USES THEREOF” (priority 2013, published 2016).

Entries after “also recorded” stand apart in the source; their conditions may differ. Read-outs that look alike come from different tables or passages of the source.

The target in one assay is Sin3. Kind of assay: method not stated.
Assay [1] concerns Hoxa9-Meis1 immortalized AML model cells. Kind of assay: Growth deficit of construct-transduced AML cells versus non-transduced cells in same well. It is filed as cell-based, murine. Conditions: for Activity: activity based upon growth deficit versus non-transduced cells in same well, constructs retrovirally transduced into AML cells.
Assay [2] deals with Hoxa9-Meis1 murine AML cells. It is filed as in vivo, mice. Conditions: for Median Survival days: mouse, in vivo; for AML latency in vivo: versus vector control.
Assay [3] has as its system Mac-1 (CD11b), Gr-1 and FLT3R expression. Put plainly: Flow cytometry of cell surface markers after transduction. Conditions: 30 days. It is filed as cell-based, murine. For orientation: A flow cytometer gives signals particle by particle.
For assay [4], the system named is differentiation-specific genes (S100A8, myeloperoxidase, neutrophil elastase). Put plainly: QPCR of differentiation-specific genes in transduced Hoxa9-Meis1 cells. The conditions noted are these: Hoxa9-Meis1 murine cells, versus vector control. The assay is classed as cell-based.
The subject of assay [5] is Hoxa9 target genes (SOX4, CD34, FLT3R, FOXP1, DNAJC10). Kind of assay: QPCR of direct Hoxa9 target genes in Hoxa9/Meis1 cells. The conditions noted are these: 17 days after transduction, versus GFP control.
Setting [6] is: listed as 3X glycine linker repressor construct.
Setting [7] is: Hoxa9-Meis1 cells, retroviral expression.

As to “wild-type SID (Sin3-interacting domain of Mad1 protein) (from UniProt Q05195 5-29) (peptide)”, the Kd (as a rule, a measure of binding affinity in units of concentration) with Sin3 turned out to be 70 nM.
As to “S2 mutant: S2 with DNA base contact residues of HFP domain mutated to alanine, SEQ ID NO: 32 (DPERQVKAWFAARRAKMKKINGGDPVSQVSAWFGAKRIAYKKNI)”, in assay [1], the “growth phenotype (growth deficit / growth inhibition)” value was “less growth inhibition”.

B1: S3: Full SID-3XNLS-HFP with GGG linker, SEQ ID NO: 30 / 35 (protein)
chain: MATAVGMNIQLLLEAADYLERREREAEHGYASMLPYDPKKKRKVDPKKKRKVDPKKKRKVGGDPERQVKIWFQNRRMKMKKINGGGDPVSQVSNWFGNKRIRYKKNIG
As to B1, the “Median Survival days” value in assay [2] is reported as 94 days. Also, the entries for the “AML latency in vivo” value in assay [2], in assay [2] (listed as HFP repressor) and in assay [2] (listed as repressor) were “longer latency in vivo that was statistically significant”, “significantly longer latency” and “longer latency”, respectively. Moreover, the “cell-surface expression of myeloid differentiation markers Mac-1 and Gr-1” value was “increases in cell-surface expression of myeloid differentiation markers” in assay [3] (setting [6]); “increases expression of Gr-1 and Mac-1 differentiation markers” in assay [3] (listed as repressor HFP). The “surface expression of Flt3 receptor” value is “decreased surface expression” in assay [3] (setting [6]) and “decreases expression of Flt3 receptor” in assay [3] (listed as repressor HFP). Moreover, the “growth phenotype (growth deficit / growth inhibition)” value in assay [1] (setting [7]) is given as “more growth deficit”; in assay [1] (Hoxa9-Meis1 cells, retroviral expression, listed as HFP), “significant growth defects”. For the same molecule, in assay [1], the Activity result was “✓”. For the same molecule, the “HFP-expressing cells as % of the population” value in assay [1] (by day 8, IRES GFP vector, GFP vector control 80%) came out at 2%. In addition, the “mRNA levels of differentiation-specific genes” value in assay [4] is given as “higher mRNA levels”; in assay [4] (setting [6]), “mRNA upregulation of differentiation-specific genes”; in assay [4] (listed as repressor), “elevates differentiation-specific genes”. Besides, the figures for the “transcripts of Hoxa9 target genes” value in assay [5] and in assay [5] (setting [6]) were “suppresses multiple targets of Hoxa9; also recorded: suppresses transcripts of Hoxa9 target genes” and “suppression of direct Hoxa9 transcriptional target genes”, respectively.

B2: S3 mutant: S3 with DNA base contact residues mutated to alanine, SEQ ID NO: 33 (HFP domain) / 46 (protein)
chain: MATAVGMNIQLLLEAADYLERREREAEHGYASMLPYDPKKKRKVDPKKKRKVDPKKKRKVGGDPERQVKAWFAARRAKMKKINGGGDPVSQVSAWFGAKRIAYKKNIG
For B2, the “growth phenotype (growth deficit / growth inhibition)” value in assay [1] (setting [7]) is “less growth inhibition”. Besides, the “transcripts of Hoxa9 target genes” value in assay [5] (listed as mutant construct) was “little to no repression”.

B3: S4: SID-3XNLS-GG linker-HoxA9-GGGG-PBX fusion protein, SEQ ID NO: 31 (protein)
chain: MATAVGMNIQLLLEAADYLERREREAEHGYASMLPYDPKKKRKVDPKKKRKVDPKKKRKVGGDPERQVKIWFQNRRMKMKKINGGGGDPVSQVSNWFGNKRIRYKKNIG
B3: the “Median Survival days” value in assay [2] is given as 69 days.

B4: S2: SID-3XNLS-GG linker-HoxA9-GG-PBX fusion protein, SEQ ID NO: 29 (protein)
chain: MATAVGMNIQLLLEAADYLERREREAEHGYASMLPYDPKKKRKVDPKKKRKVDPKKKRKVGGDPERQVKIWFQNRRMKMKKINGGDPVSQVSNWFGNKRIRYKKNIG
Turning to B4, the “Median Survival days” value in assay [2] came to 67 days. In addition, the “growth phenotype (growth deficit / growth inhibition)” value in assay [1] (setting [7]) is reported as “more growth deficit”.

B5: S1: SID-3XNLS-GG linker-HoxA9-G-PBX fusion protein, SEQ ID NO: 28 (protein)
chain: MATAVGMNIQLLLEAADYLERREREAEHGYASMLPYDPKKKRKVDPKKKRKVDPKKKRKVGGDPERQVKIWFQNRRMKMKKINGDPVSQVSNWFGNKRIRYKKNIG
Take B5: the “Median Survival days” value in assay [2] was 62 days.

B6: Fusion protein 3: SID-3XNLS-HFP, SID of SEQ ID NO: 12, SEQ ID NO: 38 (protein)
chain: MVGMNIQLLLEAADYLERREREAEHGGDPKKKRKVDPKKKRKVDPKKKRKVGGDPERQVKIWFQNRRMKMKKINGGGDPVSQVSNWFGNKRIRYKKNIG
For the molecule B6, the Activity result in assay [1] is reported as “✓”.

B7: Fusion protein 4: SID-3XNLS-HFP, SID of SEQ ID NO: 13, SEQ ID NO: 39 (protein)
chain: MVGMNIQLLLEAADYLERRERGGDPKKKRKVDPKKKRKVDPKKKRKVGGDPERQVKIWFQNRRMKMKKINGGGDPVSQVSNWFGNKRIRYKKNIG
On to B7, for which the Activity entry in assay [1] is given as “✓”.

B8: Fusion protein 10: HFP-3XNLS-Full SID, SEQ ID NO: 45 (protein)
chain: DPERQVKIWFQNRRMKMKKINGGGDPVSQVSNWFGNKRIRYKKNIGGGDPKKKRKVDPKKKRKVDPKKKRKVATAVGMNIQLLLEAADYLERREREAEHGYASMLPY
With B8, in assay [1], the Activity result is “✓”.
